According to patent publication US20230391892A1 (published 2023):

Key:
[1] = target: A120 (Homo sapiens (Human), UniProt P0DOX7 1-214); test: BLI (Octet RED96), antagonist captured on biosensor, ligand in solution
Description: (§1) Binding activities of individual bifunctional antagonists to human ligands were measured by biolayer interferometry (BLI) using Octet RED96 (FortéBIO, Pall Corporation, USA). Binding analysis was performed by first capturing the polypeptide bifunctional antagonists to biosensors. To measure the rate of association and dissociation, the bifunctional antagonists-captured biosensors were dipped in wells containing different concentrations of ligands (such as TNF-α, TGF-β1 and TGF-β3) diluted in 1× kinetic buffer for 10 min followed by 10-20 min in 1× kinetic buffer. Note that all the ligands tested were recombinantly produced based on their human sequences. The bifunctional polypeptide antagonists-captured sensors were also submerged in wells containing 1×kinetic buffer to allow single reference subtraction in order to compensate for natural dissociation of the captured bifunctional antagonists. The binding sensorgrams were collected using the 8-channel detection mode on the biosensor. Data were acquired and analyzed using the FortéBIO Data acquisition software v11.1 (FortéBIO, Pall Corporation, USA)

[2] = target: A119 (Homo sapiens (Human), UniProt P0DOX7 1-214); test: as above
Description: as §1

B1: TGF-β3 (ligand)
chain: ALDTNYCFRNLEENCCVRPLYIDFRQDLGWKWVHEPKGYYANFCSGPCPYLRSADTTHSTVLGLYNTLNPEASASPCCVPQDLEPLTILYYVGRTPKVEQLSNMVVKSCKCS
notes: also called Transforming Growth Factor-Beta 3
Kd [1]: ~1 pM
Kd [2]: ~1 pM
